Experimental data taken from paper PMC9866218 (2023).

Legend:
KV1.2 [1] = target: T1, KV1.2 (Homo sapiens, UniProt P16389); experiment: whole-cell patch clamp (koff/kon block kinetics)
KCa2.2 = KCa2.2 (Homo sapiens, UniProt Q9H2S1); experiment: whole-cell patch clamp (Hill fit of concentration-response)
KV1.2 [2] = target: T1, KV1.2; experiment: as above
KCa3.1 = KCa3.1 (Homo sapiens, UniProt O15554); experiment: as above
Chain of KCa3.1 (O15554 whole entry): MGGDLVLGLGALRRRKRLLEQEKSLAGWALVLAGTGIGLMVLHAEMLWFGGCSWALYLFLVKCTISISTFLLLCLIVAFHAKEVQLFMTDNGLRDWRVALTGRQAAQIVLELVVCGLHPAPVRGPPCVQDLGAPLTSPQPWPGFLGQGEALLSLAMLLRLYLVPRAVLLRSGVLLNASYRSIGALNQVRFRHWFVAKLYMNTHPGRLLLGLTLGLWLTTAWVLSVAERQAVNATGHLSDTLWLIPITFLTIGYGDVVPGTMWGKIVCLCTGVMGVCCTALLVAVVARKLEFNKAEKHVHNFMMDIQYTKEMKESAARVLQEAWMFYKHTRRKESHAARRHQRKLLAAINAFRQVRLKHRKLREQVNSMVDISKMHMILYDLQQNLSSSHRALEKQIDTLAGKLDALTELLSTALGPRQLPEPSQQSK

T1 sequence (P16389 whole entry): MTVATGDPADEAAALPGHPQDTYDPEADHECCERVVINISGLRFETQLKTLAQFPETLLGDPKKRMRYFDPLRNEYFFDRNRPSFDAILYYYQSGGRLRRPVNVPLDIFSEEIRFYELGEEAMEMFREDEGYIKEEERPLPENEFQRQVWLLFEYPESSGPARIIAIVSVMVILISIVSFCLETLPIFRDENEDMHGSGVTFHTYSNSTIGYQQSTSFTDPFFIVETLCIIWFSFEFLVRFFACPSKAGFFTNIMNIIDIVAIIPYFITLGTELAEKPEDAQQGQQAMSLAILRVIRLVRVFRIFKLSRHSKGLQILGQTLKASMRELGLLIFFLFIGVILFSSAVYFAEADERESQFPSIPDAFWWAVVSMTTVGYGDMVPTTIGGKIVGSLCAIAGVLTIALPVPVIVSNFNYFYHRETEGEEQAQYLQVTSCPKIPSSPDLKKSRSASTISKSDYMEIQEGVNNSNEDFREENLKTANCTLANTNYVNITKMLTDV
Chain of KCa2.2 (Q9H2S1 whole entry): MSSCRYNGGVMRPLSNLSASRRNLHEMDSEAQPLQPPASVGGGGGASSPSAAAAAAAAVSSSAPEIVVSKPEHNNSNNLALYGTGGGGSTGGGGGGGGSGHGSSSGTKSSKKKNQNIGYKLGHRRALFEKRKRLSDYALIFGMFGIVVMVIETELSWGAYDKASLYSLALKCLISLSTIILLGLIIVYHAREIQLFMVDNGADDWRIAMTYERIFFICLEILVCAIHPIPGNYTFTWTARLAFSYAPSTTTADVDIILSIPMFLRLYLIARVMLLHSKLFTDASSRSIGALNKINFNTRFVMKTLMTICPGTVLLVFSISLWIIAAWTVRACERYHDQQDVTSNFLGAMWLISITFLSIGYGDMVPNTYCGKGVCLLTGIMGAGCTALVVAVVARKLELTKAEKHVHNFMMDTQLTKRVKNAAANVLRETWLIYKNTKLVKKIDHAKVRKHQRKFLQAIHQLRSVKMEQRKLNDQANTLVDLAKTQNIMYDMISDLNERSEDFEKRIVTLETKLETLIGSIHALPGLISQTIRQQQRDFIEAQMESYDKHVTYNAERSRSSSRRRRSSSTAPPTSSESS

B1: Cm39 (α-KTx 4.8) (peptide)
chain: TFINHKCKSSSECLPACKAAIGRASGKCINSTCKCYY
- Kd (KV1.2 [1]): 87.8 nM
- Kd (KCa2.2): 502 nM
- Kd (KV1.2 [2]): 65 nM
- Kd (KCa3.1): 57.7 nM
